± gives the standard error. This sample holds only a part of the variants without activity.
B1: glmS ribozyme (parent)
chain: AUAAAAGCGCCAGAACUACAGAAAUGUAGUUGACGAGGAGGAGGUUUAUCGAAUUUUCGGCGGAUGCCUCCAAA

Experiments:
Settings in all cases: with glucosamine-6-phosphate
glucosamine-6-phosphate [1] = variants of: B1; test: self-cleavage kobs at 160 uM GlcN6P; higher = faster cleavage; RNA array
Procedure, shortened: (§1)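 Tiles bearing barcoded ribozyme variants, transcribed in situ by E. coli RNA polymerase on sequenced MiSeq chips, were imaged over ~14 h at 37 °C using a hybridised Cy3 probe. Glucosamine-6-phosphate was supplied at 40 μM to 10 mM in HEPES/KCl/Mg(OAc)2 buffer. kobs came from one- or two-exponential decay fits to normalised per-tile medians, and weighted Michaelis–Menten fits then provided kcat and KM.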

glucosamine-6-phosphate [2] = variants of: B1; test: self-cleavage kobs at 640 uM GlcN6P; higher = faster cleavage; RNA array
Procedure, shortened: as §1

glucosamine-6-phosphate [3] = variants of: B1; test: self-cleavage kobs at 2500 uM GlcN6P; higher = faster cleavage; RNA array
Procedure, shortened: as §1

glucosamine-6-phosphate [4] = variants of: B1; test: self-cleavage kobs at 40 uM GlcN6P; higher = faster cleavage; RNA array
Procedure, shortened: as §1

glucosamine-6-phosphate [5] = variants of: B1; test: self-cleavage kobs at 10000 uM GlcN6P; higher = faster cleavage; RNA array
Procedure, shortened: as §1

Variant	self-cleavage kobs at 160 uM GlcN6P (glucosamine-6-phosphate [1])	self-cleavage kobs at 640 uM GlcN6P (glucosamine-6-phosphate [2])	self-cleavage kobs at 2500 uM GlcN6P (glucosamine-6-phosphate [3])	self-cleavage kobs at 40 uM GlcN6P (glucosamine-6-phosphate [4])	self-cleavage kobs at 10000 uM GlcN6P (glucosamine-6-phosphate [5])
ACAAAAGCGCCAGAAGUACAGAAAUGUAGUUGACGAGGAGGAGGUUUAUCGACUUUUCGGCGGAUGCCUCCAAA [U2C C16G A53C]	4.66e-05 ± 1.6e-05 s⁻¹	0.000137 ± 1.9e-05 s⁻¹	0.000285 ± 4.6e-05 s⁻¹	–	–
AUAAAAGCGCCAGAACUACAGAAAUGUAGUUGACGAGGAGGAGGUUUAUCGAAUUUUCGGCGGAUGCCUCUAAA [C71U]	0.00366 ± 0.00023 s⁻¹	0.00716 ± 0.00034 s⁻¹	0.0256 ± 0.0014 s⁻¹	0.00128 ± 3.7e-05 s⁻¹	0.0553 ± 0.0027 s⁻¹
UGGAUAGCGCCAGCACUACAGAAAUGUAGUUGACGAGGAGGAGGUUUAUCGAAUUUUCGGCGGAUGCCCCCAAA [A1U U2G A3G A5U A14C U69C]	5.02e-05 ± 1.8e-05 s⁻¹	0.000257 ± 6e-05 s⁻¹	0.000526 ± 0.00012 s⁻¹	–	–
AUAAAAGCGCCAGAACUACAGAAAUGUAGUUGACGAGGAGGAGGUUUAUCGAAUUUUCGGCGGCUUCGUCCAAA [A64C G66U C68G]	–	< 1e-05 s⁻¹	< 1e-05 s⁻¹	< 1e-05 s⁻¹	–
AUAAAAGCGCCAGAACUACAGAAAUGUAGUUGACGAGGAGGAGGUUUAUCGAAUUUUCGGCGGAUGCCACCAAA [U69A]	0.000534 ± 0.00018 s⁻¹	0.000282 ± 3.1e-05 s⁻¹	0.00219 ± 0.0004 s⁻¹	0.000341 ± 7.7e-05 s⁻¹	0.000299 ± 4.6e-05 s⁻¹
AUAAAAGCGCCAGAACUACAGAAAUGUAGUUGACGAGGAGGAGGUUUAUCGAAUUUUCGGCGGAUGCCGCCAAA [U69G]	5.87e-05 ± 2.4e-06 s⁻¹	0.000488 ± 0.00012 s⁻¹	0.00011 ± 4.1e-05 s⁻¹	0.000371 ± 0.00012 s⁻¹	0.000467 ± 7.8e-05 s⁻¹
AUAAACGCGCCAGGACUACAGAAAUGUACUUGACGAGGCGGAGGUUUAUCGAAAUUUCGGCGGAUGCCUCCAAA [A6C A14G G29C A39C U54A]	< 1e-05 s⁻¹	< 1e-05 s⁻¹	–	–	–
AUAAAAGCGCCAGAACUACAGAAAUGUAGUUGACGAGGAGGAGGUUUAUCGAAUUUUCGGCGGAUGACUCUAAA [C67A C71U]	0.000151 ± 1.3e-05 s⁻¹	0.000414 ± 4.1e-05 s⁻¹	0.000679 ± 7.6e-05 s⁻¹	7.16e-05 ± 5.5e-06 s⁻¹	0.00183 ± 0.00025 s⁻¹
AUAAACGAGCCAGAACUACAGAAAUGUAGUUGACGAGGAGGAGGUUUAUCGAAUUUUCGGCGGAUGACUCCAAA [A6C C8A C67A]	< 1e-05 s⁻¹	< 1e-05 s⁻¹	< 1e-05 s⁻¹	–	< 1e-05 s⁻¹
AUAAACGCGCCAGAUCUACAGAAAUGUAGUUGACGAGGAGGAGGUUUAUCGAAUUUUCGGCGGAUGCCUCCAAA [A6C A15U]	< 1e-05 s⁻¹	–	–	–	–
AUAAAAGCGCCAGAACUACAGAAAUGUAGUUGACGAGGAGGAGGUUUAUCGAAUUUUCGGCGGAGGCCUCAAAA [U65G C71A]	6.43e-05 ± 2e-05 s⁻¹	0.000497 ± 5.7e-05 s⁻¹	0.000938 ± 0.00015 s⁻¹	4.51e-05 ± 1.7e-05 s⁻¹	0.00276 ± 0.00056 s⁻¹
AUAAAAGCGCCAGAACUACAGAAAUGUAGUUGACGAGGAGGAGGUUUAUCGAAUUUUCGGCGGAUGCUUAUAAA [C68U C70A C71U]	–	–	< 1e-05 s⁻¹	< 1e-05 s⁻¹	< 1e-05 s⁻¹
AUAAAAGCGCCAGAACUACAGAAAUGUAGUUGACGAGGAGGAGGUUUAUCGAAUUUUCGGCGGAUGUCUCGAAA [C67U C71G]	3.83e-05 ± 1.2e-05 s⁻¹	4.78e-05 ± 5.4e-06 s⁻¹	0.00068 ± 0.00033 s⁻¹	1.88e-05 ± 9.1e-06 s⁻¹	5.12e-05 ± 5.1e-06 s⁻¹
AUAAAAGCGCCAGAACUACAGAAAUGUAGUUGACGAGGAGGAGGUUUAUCGAAUUUUCGGCGGAUGCUUUUAAA [C68U C70U C71U]	–	–	–	< 1e-05 s⁻¹	–
ACAAAAGCUCCAGAACUACAGAAAUGUAGUUGACGAGGAGGAGGUUUAUCGAAUUAUCGGCGGAUGCCUCUAAA [U2C G9U U56A C71U]	< 1e-05 s⁻¹	< 1e-05 s⁻¹	–	–	–
AUAAAAGCGCCAGAACUACAGAAAUGUAGUUGACGAGGAGGAGGUUUAUCGAAUUUUCGGCGGAAGCCUCAAAA [U65A C71A]	–	–	0.0012 ± 0.00041 s⁻¹	5.65e-05 ± 2.4e-05 s⁻¹	0.00104 ± 0.00039 s⁻¹
AUAAAAGCGCCAGAACUACAGAAAUGUAGUUGACGAGGAGGAGGUUUAUCGAAUUUUCGGCGGAGGACUCCAAA [U65G C67A]	0.000116 ± 1.9e-05 s⁻¹	0.000435 ± 6.7e-05 s⁻¹	0.00133 ± 0.0004 s⁻¹	7.27e-05 ± 1.2e-05 s⁻¹	0.00417 ± 0.0006 s⁻¹
AUAAACGCGCCAGAACUACAGAAAUGUAGUUGACGGGGAGGAGGUUGAUCGAAUUUUCGGCGGAUGCCUCCAAA [A6C A36G U47G]	< 1e-05 s⁻¹	< 1e-05 s⁻¹	–	–	–
AUAAAAGCGCCAGAACUACAGAAAUGUAGUUGACGAGGAGGAGGUUUAUCGAAUUUUCGGCGGAUACCUGCAAA [G66A C70G]	7.92e-05 ± 2.2e-05 s⁻¹	0.000305 ± 7.2e-05 s⁻¹	0.000267 ± 7.7e-05 s⁻¹	8.19e-05 ± 1.3e-05 s⁻¹	0.00273 ± 0.00055 s⁻¹
AUAAAAGCGCCAGAACUACAGAAAUGUAGUUGACGAGGAGGAGGUUUAUCGAAUUUUCGGCGGAUACCUACAAA [G66A C70A]	7.28e-05 ± 2.8e-05 s⁻¹	0.000708 ± 0.00013 s⁻¹	0.00036 ± 8.5e-05 s⁻¹	8.27e-05 ± 1.4e-05 s⁻¹	0.000947 ± 0.00015 s⁻¹
AUAAAAGCGCCAGAACUACAGAAAUGUAGUUGACGAGGAGGAGGUUUAUCGAAUUUUCGGCGGAUGCACCCAAA [C68A U69C]	–	–	–	< 1e-05 s⁻¹	4.51e-05 ± 1.6e-05 s⁻¹

From the supplement of paper PMC7125110
